*1 amine or outer side, *2 acyl side, *3 side chain or, on linkers, in order; H or OH if unused. Bridges are numbered along the chain shown (N, C = ends). Primed or numbered codes have the meaning given here. Where no end group is shown, it is not given here. [ ]: non-standard residue; d: D form. The star is where a group is joined. Ttds = 1,13-diamino-4,7,10-trioxatridecan-succinamic acid, NCCCOCCOCCOCCCNC(=O)CCC(=O)*; 2,6‑lutidylidene = 2Lut, Cys-Cys crosslink via 2,6-lutidylidene; tMeBn(DOTA-PP) = mesitylene bridge bearing DOTA via piperazine; APAc″ = 4-amino-1-carboxymethylpiperidine, NC1CCN(CC(=O)*)CC1; dE(AGLU) = D-glutamic acid bearing 1-amino-1-deoxy-D-glucitol; MeO36PEG = monodisperse PEG 36 units conjugated with acetyl; Pro(trans-4-NH2) = O=C([C@@H]1C[C@@H](N[*:3])CN1[*:1])[*:2]; DOTA = O=C(O)CN1CCN(CC(=O)O)CCN(CC(=O)*)CCN(CC(=O)O)CC1; MeO2kDaPEGAc″ = methoxy polydisperse 2 kDa PEG acetyl; 2Lut = 2,6-lutidylidene bridge between two thiols; Trp(5-Cl) = N[C@@H](Cc1c[nH]c2ccc(Cl)cc12)C(=O)O; Trp(6-Cl) = N[C@@H](Cc1c[nH]c2cc(Cl)ccc12)C(=O)O; Phe(3,5-Cl2) = N[C@@H](Cc1cc(Cl)cc(Cl)c1)C(=O)O; Pyridine(2,6-diCH2) = c1cc(C[*:1])nc(C[*:2])c1; Trp(7-aza) = N[C@@H](Cc1c[nH]c2ncccc12)C(=O)O; 2Lut″ = 2,6-lutidylidene linking two thiols; APAc = 4-amino-1-carboxymethylpiperidine; Phe(2-Cl) = N[C@@H](Cc1ccccc1Cl)C(=O)O; 1Nal = N[C@@H](Cc1cccc2ccccc12)C(=O)O; mXylylene = c1cc(C[*:1])cc(C[*:2])c1; Glutaryl = O=C(CCCC(=O)[*:2])[*:1]; AGLU = 1-amino-1-deoxy-D-glucitol; Hyp = O=C(O)[C@@H]1C[C@@H](O)CN1; Cysteamide = C(CS[*:3])N[*:1]; Suc = O=C(CCC(=O)[*:2])[*:1]; hLeu = CC(C)CC[C@H](N)C(=O)O; 2Lut(3) = 2,6-lutidylidene; dDab = NCC[C@@H](N)C(=O)O; hCys = N[C@@H](CCS)C(=O)O; Api = NC1(C(=O)O)CCNCC1; Thp = NC1(C(=O)O)CCOCC1; Aib = CC(C)(N)C(=O)O; mli″ = maleimide
The molecules below were run against biotinylated extracellular domain of the human GIP receptor (bioGIPR) (human) (UniProt P48546) (assay: SPR single cycle kinetics, bioGIPR captured on chip; category A: t1/2 >15 min).
Chain of biotinylated extracellular domain of the human GIP receptor (bioGIPR) (human) (P48546 24-138 limits assumed): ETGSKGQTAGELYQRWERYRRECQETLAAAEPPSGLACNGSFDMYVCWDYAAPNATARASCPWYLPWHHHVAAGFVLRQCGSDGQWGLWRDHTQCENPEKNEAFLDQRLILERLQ

| Molecule | t1/2 [min] |
| --- | --- |
| AGLU-Glutar-APAc-Asp-Trp-5Clw-Tap(AGLU-Glutar)-Glu-leu-[Cys(2Lut)-Apc(DOTA-glu(AGLU))-Leu-Ile-Cys]-APAc-glu(AGLU)-NH2 (peptide) | > 15 |

Each molecule was assayed against human Gastric Inhibitory Peptide Receptor (human) (UniProt P48546) (assay: FACS competition with GIP-057 on CHO-K1-hGIPR cells; pIC50 category B: 7.1-8.0).
Chain of human Gastric Inhibitory Peptide Receptor (human) (P48546 22-466 limits assumed): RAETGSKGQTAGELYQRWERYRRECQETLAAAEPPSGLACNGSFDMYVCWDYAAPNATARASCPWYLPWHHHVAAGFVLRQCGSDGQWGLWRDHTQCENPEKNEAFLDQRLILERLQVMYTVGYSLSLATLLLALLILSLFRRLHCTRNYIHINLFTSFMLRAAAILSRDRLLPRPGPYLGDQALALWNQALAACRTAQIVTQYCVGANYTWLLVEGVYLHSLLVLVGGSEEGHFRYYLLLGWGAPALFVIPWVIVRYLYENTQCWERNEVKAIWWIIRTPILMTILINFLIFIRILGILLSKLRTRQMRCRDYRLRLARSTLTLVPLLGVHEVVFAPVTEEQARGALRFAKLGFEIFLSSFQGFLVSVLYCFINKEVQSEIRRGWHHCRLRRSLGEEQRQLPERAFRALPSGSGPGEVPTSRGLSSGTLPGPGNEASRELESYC

| pIC50 [pic50] | Molecule |
| --- | --- |
| 7.1 to 8 | {DOTA-Ttds}-D[Trp(6-Cl)]WPE[dL]C[Aib]LI[Cysteamide] (linker 7-11 via mXylylene) [DOTA-Ttds-Asp-6Clw-Trp-Pro-Glu-leu-[Cys(3MeBn)-Aib-Leu-Ile-AET]] |
| 7.1 to 8 | Suc-W[Trp(5-Cl)][Hyp]E[dL]C[Api](MeO2kDaPEGAc″)LIC-{APAc-Lys(DOTA)-NH2} (linker 6-10 via Pyridine(2,6-diCH2)) [HO-Succinyl-Trp-5Clw-Hyp-Glu-leu-[Cys(2Lut)-Apc(MeO2kDaPEGAc)-Leu-Ile-Cys]-APAc-Lys(DOTA)-NH2] |
| 7.1 to 8 | Suc-W[Trp(5-Cl)][Hyp]E[dL]C[Thp]LIC (linker 6-10 via 2Lut; not fully specified (C-terminus); printed as HO-Succinyl-Trp-5Clw-Hyp-Glu-leu-[Cys(2Lut)-Thp-Leu-Ile-Cys]-APAc-lys(MeO2kDaPEGAc)-Lys(DOTA)-NH2) [HO-Succinyl-Trp-5Clw-Hyp-Glu-leu-[Cys(2Lut)-Thp-Leu-Ile-Cys]-APAc-lys(MeO2kDaPEGAc)-Lys(DOTA)-NH2] |
| 7.1 to 8 | Ac-DW[Trp(5-Cl)][Hyp]E[dL]C[Thp]LIC-NH2 (linker 7-11 via tMeBn(DOTA-PP)) [Ac-Asp-Trp-5Clw-Hyp-Glu-leu-[Cys(tMeBn(DOTA-PP))-Thp-Leu-Ile-Cys]-NH2] |
| 7.1 to 8 | {AGLU-Glutaryl}-DW[Trp(5-Cl)][Pro(trans-4-NH2)]E[dL]C[dK](DOTA)LIC-{APAc-dE(AGLU)-NH2} (linker 7-11 via Pyridine(2,6-diCH2)) [AGLU-Glutar-Asp-Trp-5Clw-Tap-Glu-leu-[Cys(2Lut)-lys(DOTA)-Leu-Ile-Cys]-APAc-glu(AGLU)-NH2] |
| 7.1 to 8 | {MeO36PEG-APAc}-DW[Trp(5-Cl)][Hyp]E[dL]C[Api](DOTA)LIC-{APAc-dE(AGLU)-NH2} (linker 7-11 via Pyridine(2,6-diCH2)) [MeO36PEG-APAc-Asp-Trp-5Clw-Hyp-Glu-leu-[Cys(2Lut)-Apc(DOTA)-Leu-Ile-Cys]-APAc-glu(AGLU)-NH2] |
| 7.1 to 8 | {MeO36PEG-APAc}-DW[Trp(5-Cl)][Pro(trans-4-NH2)]E[dL]C[Api](DOTA)LIC-{APAc-dE(AGLU)-NH2} (linker 7-11 via Pyridine(2,6-diCH2)) [MeO36PEG-APAc-Asp-Trp-5Clw-Tap-Glu-leu-[Cys(2Lut)-Apc(DOTA)-Leu-Ile-Cys]-APAc-glu(AGLU)-NH2] |
| 7.1 to 8 | XWXXEXCXLIC (N-term AGLU-Glutar-APAc; Hse; 5Clw; Tap; leu (D-Leu); thioether cycle [Cys(2Lut)..Cys]; Apc(DOTA); C-term APAc-glu(AGLU)-NH2) [AGLU-Glutar-APAc-Hse-Trp-5Clw-Tap-Glu-leu-[Cys(2Lut)-Apc(DOTA)-Leu-Ile-Cys]-APAc-glu(AGLU)-NH2] |
| 7.1 to 8 | {AGLU-Glutaryl}-DW[Trp(5-Cl)][Pro(trans-4-NH2)]E[dL][dC][Api](DOTA)LIC-{APAc-dE(AGLU)-NH2} (linker 7-11 via Pyridine(2,6-diCH2)) [AGLU-Glutar-Asp-Trp-5Clw-Tap-Glu-leu-[cys(2Lut)-Apc(DOTA)-Leu-Ile-Cys]-APAc-glu(AGLU)-NH2] |

The remaining lines, values behind:

| Molecule | pIC50 [pic50] |
| --- | --- |
| AGLU-Glutar-APAc-Asp-Trp-5Clw-Tap(AGLU-Glutar)-Glu-leu-[Cys(2Lut)-Apc(DOTA-glu(AGLU))-Leu-Ile-Cys]-APAc-glu(AGLU)-NH2 (peptide) | 7.1 to 8 |
| DOTA-Ttds-Nmd-Trp-Trp-Pro-Glu-Leu-[Cys(3MeBn)-Aib-Leu-Ile-AET] (peptide) | 7.1 to 8 |
| {AGLU-Glutaryl}-DW[Trp(5-Cl)][Pro(trans-4-NH2)]E[dL]C[dDab](DOTA)LIC-{APAc-dE(AGLU)-NH2} (linker 7-11 via 2,6‑lutidylidene) [AGLU-Glutar-Asp-Trp-5Clw-Tap-Glu-leu-[Cys(2Lut)-dab(DOTA)-Leu-Ile-Cys]-APAc-glu(AGLU)-NH2] | 7.1 to 8 |
| {AGLU-Glutaryl-APAc″}-DW[Trp(5-Cl)][Hyp]E[dL]C[Api](DOTA)LIC (linker 7-11 via Pyridine(2,6-diCH2); not fully specified (C-terminus)) [AGLU-Glutar-APAc-Asp-Trp-5Clw-Hyp-Glu-leu-[Cys(2Lut)-Apc(DOTA)-Leu-Ile-Cys]-lys(MeO36PEG)-NH2] | 7.1 to 8 |
| {MeO36PEG-APAc″}-DW[Trp(5-Cl)][Hyp]E[dL]C[Api](DOTA)LIC-{dE(AGLU)-NH2} (linker 7-11 via Pyridine(2,6-diCH2)) [MeO36PEG-APAc-Asp-Trp-5Clw-Hyp-Glu-leu-[Cys(2Lut)-Apc(DOTA)-Leu-Ile-Cys]-glu(AGLU)-NH2] | 7.1 to 8 |
| XWXXEXCXLIC (not fully specified; N-term AGLU-Glutar-APAc; Hse; 5Clw; Hyp; leu (D-Leu); thioether cycle [Cys(2Lut)..Cys]; Apc(DOTA-glu(AGLU)); C-term APAc-glu(AGLU)-NH2) | 7.1 to 8 |
| {AGLU-Glutaryl}-DW[Trp(5-Cl)][Pro(trans-4-NH2)]E[dL][dC][Api](DOTA)LI[dC]-{APAc-dE(AGLU)-NH2} (linker 7-11 via Pyridine(2,6-diCH2)) [AGLU-Glutar-Asp-Trp-5Clw-Tap-Glu-leu-[cys(2Lut)-Apc(DOTA)-Leu-Ile-cys]-APAc-glu(AGLU)-NH2] | 7.1 to 8 |

What follows are molecules tested against human Gastric Inhibitory Peptide Receptor (GIPR) (human) (UniProt P48546) (assay: FACS competition vs biotinylated GIP-057 on CHO-K1-hGIPR cells; category B: pIC50 7.1-8.0).
Chain of human Gastric Inhibitory Peptide Receptor (GIPR) (human) (P48546 22-466 limits assumed): as above

| pIC50 [pic50] | Molecule |
| --- | --- |
| 7.1 to 8 | Ac-DW[Trp(7-aza)][Hyp]E[dL]C[Thp]LIC-NH2 (linker 7-11 via 2Lut″) [Ac-Asp-Trp-7Nw-Hyp-Glu-leu-[Cys(2Lut)-Thp-Leu-Ile-Cys]-NH2] |
| 7.1 to 8 | {DOTA-Ttds}-D[Phe(2-Cl)][Trp(5-Cl)][Hyp]E[dL]C[Thp]LIC-NH2 (linker 7-11 via 2Lut(3)) [DOTA-Ttds-Asp-Ocf-5Clw-Hyp-Glu-leu-[Cys(2Lut)-Thp-Leu-Ile-Cys]-NH2] |
| 7.1 to 8 | Ac-DW[Trp(5-Cl)][Hyp]E[dL]C[Thp]LFC-{(dK)(DOTA)-NH2} (linker 7-11 via Pyridine(2,6-diCH2)) [Ac-Asp-Trp-5Clw-Hyp-Glu-leu-[Cys(2Lut)-Thp-Leu-Phe-Cys]-lys(DOTA)-NH2] |
| 7.1 to 8 | Ac-D[Phe(2-Cl)][Trp(5-Cl)][Pro(trans-4-NH2)](DOTA)E[dL]C[Thp]LIC-NH2 (linker 7-11 via Pyridine(2,6-diCH2)) [Ac-Asp-Ocf-5Clw-Tap(DOTA)-Glu-leu-[Cys(2Lut)-Thp-Leu-Ile-Cys]-NH2] |
| 7.1 to 8 | Ac-DW[Trp(5-Cl)][Pro(trans-4-NH2)](DOTA)E[dL]C[Thp]LFC-NH2 (linker 7-11 via 2Lut″) [Ac-Asp-Trp-5Clw-Tap(DOTA)-Glu-leu-[Cys(2Lut)-Thp-Leu-Phe-Cys]-NH2] |
| 7.1 to 8 | Ac-D[Phe(2-Cl)][Trp(5-Cl)][Hyp]E[dL]C[Api](DOTA)LIC-NH2 (linker 7-11 via Pyridine(2,6-diCH2)) [Ac-Asp-Ocf-5Clw-Hyp-Glu-leu-[Cys(2Lut)-Apc(DOTA)-Leu-Ile-Cys]-NH2] |
| 7.1 to 8 | Ac-DW[1Nal][Pro(trans-4-NH2)](DOTA)E[hLeu]C[Aib]LIC-NH2 (linker 7-11 via mXylylene) [Ac-Asp-Trp-1Ni-Tap(DOTA)-Glu-Hle-[Cys(3MeBn)-Aib-Leu-Ile-Cys]-NH2] |
| 7.1 to 8 | {DOTA-Ttds}-DW[Phe(3,5-Cl2)][Hyp]E[dL]C[Thp]LIC-NH2 (linker 7-11 via Pyridine(2,6-diCH2)) [DOTA-Ttds-Asp-Trp-Egn-Hyp-Glu-leu-[Cys(2Lut)-Thp-Leu-Ile-Cys]-NH2] |

Continued, molecule first:

| Molecule | pIC50 [pic50] |
| --- | --- |
| Ac-DW[Trp(5-Cl)][Hyp]E[dL]C[Thp]LFC-NH2 (linker 7-11 via Pyridine(2,6-diCH2); SMILES CC(=O)N[C@@H](CC(=O)O)C(=O)N[C@@H](Cc1c[nH]c2ccccc12)C(=O)N[C@@H](Cc1c[nH]c2ccc(Cl)cc12)C(=O)N1C[C@H](O)C[C@H]1C(=O)N[C@@H](CCC(=O)O)C(=O)N[C@H](CC(C)C)C(=O)N[C@H]1CSCc2cccc(n2)CSC[C@@H](C(N)=O)NC(=O)[C@H](Cc2ccccc2)NC(=O)[C@H](CC(C)C)NC(=O)C2(CCOCC2)NC1=O) [Ac-Asp-Trp-5Clw-Hyp-Glu-leu-[Cys(2Lut)-Thp-Leu-Phe-Cys]-NH2] | 7.1 to 8 |
| Ac-DW[Trp(5-Cl)][Hyp]E[dL][hCys][Thp]LIC-NH2 (linker 7-11 via mli″) [Ac-Asp-Trp-5Clw-Hyp-Glu-leu-[Hcy(mli)-Thp-Leu-Ile-Cys]-NH2] | 7.1 to 8 |
| Ac-DW[Trp(5-Cl)][Hyp]E[dL][hCys][Thp]LI[hCys]-NH2 (disulfide 7-11) [Ac-Asp-Trp-5Clw-Hyp-Glu-leu-[Hcy-Thp-Leu-Ile-Hcy]-NH2] | 7.1 to 8 |
| {DOTA-Ttds}-DW[Trp(5-Cl)][Hyp]E[dL]C[Thp]LFC-NH2 (linker 7-11 via 2Lut(3)) [DOTA-Ttds-Asp-Trp-5Clw-Hyp-Glu-leu-[Cys(2Lut)-Thp-Leu-Phe-Cys]-NH2] | 7.1 to 8 |
| Ac-DW[Trp(5-Cl)][Hyp]F[dL]C[Thp]LIC-NH2 (linker 7-11 via Pyridine(2,6-diCH2)) [Ac-Asp-Trp-5Clw-Hyp-Phe-leu-[Cys(2Lut)-Thp-Leu-Ile-Cys]-NH2] | 7.1 to 8 |
| Ac-DW[Trp(5-Cl)][Hyp]W[dL]C[Thp]LIC-NH2 (linker 7-11 via Pyridine(2,6-diCH2)) [Ac-Asp-Trp-5Clw-Hyp-Trp-leu-[Cys(2Lut)-Thp-Leu-Ile-Cys]-NH2] | 7.1 to 8 |
| Ac-DW[Trp(5-Cl)][Hyp]P[dL]C[Thp]LIC-NH2 (linker 7-11 via Pyridine(2,6-diCH2)) [Ac-Asp-Trp-5Clw-Hyp-Pro-leu-[Cys(2Lut)-Thp-Leu-Ile-Cys]-NH2] | 7.1 to 8 |

These molecules were tested against biotinylated extracellular domain of the human GIP receptor (bioGIPR) (human) (UniProt P48546) (assay: SPR single cycle kinetics, bioGIPR captured on chip; category A: pKD >9.0).

| Molecule | pKD [pkd] |
| --- | --- |
| AGLU-Glutar-APAc-Asp-Trp-5Clw-Tap(AGLU-Glutar)-Glu-leu-[Cys(2Lut)-Apc(DOTA-glu(AGLU))-Leu-Ile-Cys]-APAc-glu(AGLU)-NH2 (peptide) | > 9 |
